# Data taken from PMC3512392 (The EMBO Journal, 2012).
# B1: SNX1 (301–522) (domain or fragment)
# chain: KMNESDIWFEEKLQEVECEEQRLRKLHAVVETLVNHRKELALNTAQFAKSLAMLGSSEDNTALSRALSQLAEVEEKIEQLHQEQANNDFFLLAELLSDYIRLLAIVRAAFDQRMKTWQRWQDAQATLQKKREAEARLLWANKPDKLQQAKDEILEWESRVTQYERDFERISTVVRKEVIRFEKEKSKDFKNHVIKYLETLLYSQQQLAKYWEAFLPEAKAIS
# Biological target: the molecule itself
# Experiment: crystal structure
protein,measurement,value
B1,binding result,binds
